Measurements taken from patent publication US20160280766A1 (UNIVERSITY OF MARYLAND BALTIMORE, published 2016).

T1: FcγRIIA (human, UniProt P12318 34-217, limits assumed)
T1 construct: also called CD32; not shown: His-tag fused to the C-terminus
T1 sequence (looked up): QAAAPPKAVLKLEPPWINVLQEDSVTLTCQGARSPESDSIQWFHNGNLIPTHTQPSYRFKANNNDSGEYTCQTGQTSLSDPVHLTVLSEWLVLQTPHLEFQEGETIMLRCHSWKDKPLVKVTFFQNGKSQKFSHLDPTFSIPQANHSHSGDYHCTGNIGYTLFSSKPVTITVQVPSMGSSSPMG

T2: FcγRIIB (human, UniProt P31994 43-217, limits assumed)
T2 construct: also called CD32; not shown: His-tag fused to the C-terminus
T2 sequence (looked up): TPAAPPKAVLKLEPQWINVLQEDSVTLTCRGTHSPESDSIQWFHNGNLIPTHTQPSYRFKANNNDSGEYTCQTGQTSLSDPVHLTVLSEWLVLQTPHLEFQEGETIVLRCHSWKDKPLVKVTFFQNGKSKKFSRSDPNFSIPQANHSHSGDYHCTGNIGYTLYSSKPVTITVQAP

B1: Fc-226^hg/290^hg/E333A/K334A (other)
chain: EPKSCDKTHTNSTCPAPELLGGPSVFLFPPKPKDTLMISRTPEVTCVVVDVSHEDPEVKFNWYVDGVEVHNAKTNSTEEQYNSTYRVVSVLTVLHQDWLNGKEYKCKVSNKALPAPIAATISKAKGQPREPQVYTLPPSREEMTKNQVSLTCLVKGFYPSDIAVEWESNGQPENNYKTTPPVLDSDGSFFLYSKLTVDKSRWQQGNVFSCSVMHEALHNHYTQKSLSLSPGK
modifications: N-linked glycans at Asn297 and at engineered Asn226 and Asn290 (IgG1 heavy chain positions)
B2: Fc-S298A/E333A/K334A (other)
chain: EPKSCDKTHTCPPCPAPELLGGPSVFLFPPKPKDTLMISRTPEVTCVVVDVSHEDPEVKFNWYVDGVEVHNAKTKPREEQYNATYRVVSVLTVLHQDWLNGKEYKCKVSNKALPAPIAATISKAKGQPREPQVYTLPPSREEMTKNQVSLTCLVKGFYPSDIAVEWESNGQPENNYKTTPPVLDSDGSFFLYSKLTVDKSRWQQGNVFSCSVMHEALHNHYTQKSLSLSPGK
modifications: N-linked glycan at Asn297
B3: IgG1 Fc variant Fc-290^hg (other)
chain: EPKSCDKTHTCPPCPAPELLGGPSVFLFPPKPKDTLMISRTPEVTCVVVDVSHEDPEVKFNWYVDGVEVHNAKTNSTEEQYNSTYRVVSVLTVLHQDWLNGKEYKCKVSNKALPAPIEKTISKAKGQPREPQVYTLPPSREEMTKNQVSLTCLVKGFYPSDIAVEWESNGQPENNYKTTPPVLDSDGSFFLYSKLTVDKSRWQQGNVFSCSVMHEALHNHYTQKSLSLSPGK
modifications: N-linked glycans at Asn297 and at engineered Asn290 (IgG1 heavy chain positions)
notes: KPR at 290-292 replaced by NST
B4: IgG1 Fc variant Fc-226^hg/290^hg/S298A (other)
chain: EPKSCDKTHTNSTCPAPELLGGPSVFLFPPKPKDTLMISRTPEVTCVVVDVSHEDPEVKFNWYVDGVEVHNAKTNSTEEQYNATYRVVSVLTVLHQDWLNGKEYKCKVSNKALPAPIEKTISKAKGQPREPQVYTLPPSREEMTKNQVSLTCLVKGFYPSDIAVEWESNGQPENNYKTTPPVLDSDGSFFLYSKLTVDKSRWQQGNVFSCSVMHEALHNHYTQKSLSLSPGK
modifications: N-linked glycans at Asn297 and at engineered Asn226 and Asn290 (IgG1 heavy chain positions)
B5: IgG1 Fc variant Fc-226^hg/290^hg (other)
chain: EPKSCDKTHTNSTCPAPELLGGPSVFLFPPKPKDTLMISRTPEVTCVVVDVSHEDPEVKFNWYVDGVEVHNAKTNSTEEQYNSTYRVVSVLTVLHQDWLNGKEYKCKVSNKALPAPIEKTISKAKGQPREPQVYTLPPSREEMTKNQVSLTCLVKGFYPSDIAVEWESNGQPENNYKTTPPVLDSDGSFFLYSKLTVDKSRWQQGNVFSCSVMHEALHNHYTQKSLSLSPGK
modifications: N-linked glycans at Asn297 and at engineered Asn226 and Asn290 (IgG1 heavy chain positions)
notes: Both CPP (226-228) and KPR (290-292) replaced by NST
B6: IgG1 Fc variant Fc-226^hg/290^hg/S298A/E333A/K334A (other)
chain: EPKSCDKTHTNSTCPAPELLGGPSVFLFPPKPKDTLMISRTPEVTCVVVDVSHEDPEVKFNWYVDGVEVHNAKTNSTEEQYNATYRVVSVLTVLHQDWLNGKEYKCKVSNKALPAPIAATISKAKGQPREPQVYTLPPSREEMTKNQVSLTCLVKGFYPSDIAVEWESNGQPENNYKTTPPVLDSDGSFFLYSKLTVDKSRWQQGNVFSCSVMHEALHNHYTQKSLSLSPGK
modifications: N-linked glycans at Asn297 and at engineered Asn226 and Asn290 (IgG1 heavy chain positions)

How the values were obtained:
[1] = biological target: T3, FcγRIIIA having a Val residue at polymorphic site 158 (human, UniProt P08637 17-208); test: ratio of SPR KDs, reference Fc-WT
T3 construct: also called FcγRIIIA-158V; CD16a; not shown: His-tag fused to the C-terminus

FcγRIIA [2] = biological target: T1, FcγRIIA; test: ratio of SPR KDs, reference Fc-WT
[3] = biological target: T4, FcγRIIIA having a Phe residue at polymorphic site 158 (human, UniProt P08637 17-208, limits assumed); test: ratio of SPR KDs, reference Fc-WT
T4 construct: also called FcγRIIIA-158F; CD16a; not shown: His-tag fused to the C-terminus

FcγRIIB [4] = biological target: T2, FcγRIIB; test: ratio of SPR KDs, reference Fc-WT
[5] = biological target: T3, FcγRIIIA having a Val residue at …; test: SPR, Fc captured on Protein A, receptor injected; 1:1 Langmuir kinetic fit
Protocol: All experiments were performed using a Biacore T100 instrument (GE Healthcare). Protein A (Sigma-Aldrich) (0.1 mg/mL, 10 mM sodium acetate, pH 4.5) was immobilized at a density of 1000 response units (RU) in flow cells 1 and 2 of a CM5 sensor chip via standard amine-coupling procedure according to the manufacturer's instructions (GE Healthcare), using HBS-X buffer (10 mM HEPES, 150 mM NaCl, 0.05% Tween 20) as the running buffer and a flow rate of […]. Flow cell 1 was used as negative control, while flow cell 2 was used to capture wild type or hyper-glycosylated Fc variants in PBS at a density of 100-150 RU. […] Between experiments, the sensor chip surface was regenerated by 2 injections of 15 μL each of 20 mM HCl. Experimental data were corrected for instrument and bulk artifacts by referencing to a control sensor chip surface using Biacore T100 evaluation software 2.0.3 (GE Healthcare). Kinetic parameters of binding were determined using the same software and a 1:1 Langmuir binding model for all FcγRIIIA-158V interactions.

FcγRIIA [6] = biological target: T1, FcγRIIA; test: SPR, Fc captured on Protein A, receptor injected; steady-state analysis
[7] = biological target: T4, FcγRIIIA having a Phe residue at …; test: as above
FcγRIIB [8] = biological target: T2, FcγRIIB; test: as above

T3 sequence (P08637 17-208 F176V): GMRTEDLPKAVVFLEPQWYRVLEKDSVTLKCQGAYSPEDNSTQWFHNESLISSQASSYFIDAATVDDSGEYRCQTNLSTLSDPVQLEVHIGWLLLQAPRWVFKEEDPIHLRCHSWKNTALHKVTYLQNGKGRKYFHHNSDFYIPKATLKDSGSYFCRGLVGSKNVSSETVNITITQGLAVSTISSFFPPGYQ
T4 sequence (P08637 17-208 limits assumed): as the sequence (P08637 17-208 F176V) above, with V160F counted along it

Binder	fold decrease in binding (Fc-variant KD/Fc-WT KD) [1] [fold]	fold decrease in binding (Fc-variant KD/Fc-WT KD) (FcγRIIA [2]) [fold]	fold decrease in binding (Fc-variant KD/Fc-WT KD) [3] [fold]	fold decrease in binding (Fc-variant KD/Fc-WT KD) (FcγRIIB [4]) [fold]	Kd [5] [nM]	Kd (FcγRIIA [6]) [nM]	Kd [7] [nM]	Kd (FcγRIIB [8]) [nM]
B1	17.8	11.2	11.8	12.2	57	13400	151	20800
B2	–	–	–	–	2.1	–	–	7100
B3	–	–	–	–	20.8	–	66.1	18800
B4	6.3	10.7	6.9	60.9	20.2	12800	87.8	104000
B5	8.6	7.6	12.4	30.1	27.5	9100	160	51200
B6	4.8	10.7	3.9	37.8	15.5	12800	50.1	64200
